Assay results as given in US20240301385, “DNA MODIFYING ENZYMES AND ACTIVE FRAGMENTS AND VARIANTS THEREOF AND METHODS OF USE” (LIFEEDIT THERAPEUTICS, INC., published 2024).

T1: APG00868.1-L16-nAPG07433.1 (truncated deaminase) (synthetic)
T1 chain: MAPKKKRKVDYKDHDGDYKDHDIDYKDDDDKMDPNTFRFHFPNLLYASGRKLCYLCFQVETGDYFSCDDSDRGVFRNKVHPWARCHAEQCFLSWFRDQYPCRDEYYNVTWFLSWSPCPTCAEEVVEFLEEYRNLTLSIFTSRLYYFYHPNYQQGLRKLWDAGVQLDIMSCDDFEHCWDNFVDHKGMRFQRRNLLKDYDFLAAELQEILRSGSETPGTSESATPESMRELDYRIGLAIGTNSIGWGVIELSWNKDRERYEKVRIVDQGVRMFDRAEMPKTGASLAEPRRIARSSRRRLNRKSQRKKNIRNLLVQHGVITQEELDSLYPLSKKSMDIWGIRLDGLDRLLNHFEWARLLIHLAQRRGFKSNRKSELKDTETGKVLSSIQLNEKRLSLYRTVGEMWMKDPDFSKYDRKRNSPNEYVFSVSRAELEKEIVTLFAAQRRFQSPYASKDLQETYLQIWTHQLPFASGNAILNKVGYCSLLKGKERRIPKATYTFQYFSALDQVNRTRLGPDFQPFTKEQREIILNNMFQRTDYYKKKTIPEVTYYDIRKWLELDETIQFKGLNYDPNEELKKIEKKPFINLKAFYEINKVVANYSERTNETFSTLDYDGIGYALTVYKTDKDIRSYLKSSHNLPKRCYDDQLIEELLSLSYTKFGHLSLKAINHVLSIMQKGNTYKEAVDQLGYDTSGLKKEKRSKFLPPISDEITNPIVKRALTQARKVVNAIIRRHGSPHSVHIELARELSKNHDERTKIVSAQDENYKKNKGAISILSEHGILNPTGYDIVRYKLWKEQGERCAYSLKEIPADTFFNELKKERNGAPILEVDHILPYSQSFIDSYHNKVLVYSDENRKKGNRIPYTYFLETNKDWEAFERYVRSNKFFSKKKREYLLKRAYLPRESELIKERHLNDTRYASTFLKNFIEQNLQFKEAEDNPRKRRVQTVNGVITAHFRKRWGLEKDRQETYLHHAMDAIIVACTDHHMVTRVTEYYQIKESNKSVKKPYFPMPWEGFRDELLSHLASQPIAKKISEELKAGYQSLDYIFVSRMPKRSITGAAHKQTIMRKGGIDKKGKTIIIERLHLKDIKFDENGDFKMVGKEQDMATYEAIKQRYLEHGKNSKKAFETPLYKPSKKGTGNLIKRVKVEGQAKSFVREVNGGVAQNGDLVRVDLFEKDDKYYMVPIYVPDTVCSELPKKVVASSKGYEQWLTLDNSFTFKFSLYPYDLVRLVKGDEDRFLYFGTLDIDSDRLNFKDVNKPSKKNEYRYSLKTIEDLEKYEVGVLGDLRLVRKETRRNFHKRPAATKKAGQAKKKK


How the values were obtained:
[1] = molecular target: APG05840-L16-nAPG07433.1 (synthetic); test: cell_activity; HEK293FT; PAM SEQ 152; conditions: tags: SV40 NLS, 3xFLAG N-term; nucleoplasmin NLS C-term
How it was run: (§1)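 Editing read out by next-generation sequencing (MiSeq 2×250) of PCR amplicons spanning the target site, analysed for INDELs or % cytosine conversion per position (position 1 nearest PAM).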

[2] = molecular target: T1, APG00868.1-L16-nAPG07433.1 (truncated …); test: cell_activity; HEK293FT; PAM SEQ 152; conditions: tags: SV40 NLS, 3xFLAG N-term; nucleoplasmin NLS C-term
How it was run: as §1

Binder | activity [1] [% mutated reads] | activity [2] [% mutated reads]
SGN000930 sgRNA ; SGN000930 target (ssRNA ; dsDNA) RNA: GAACAACUCAAAUGGAAAUGAAUAUGUCAUAGUUCCAUGAAAGCCAAAAGUGGCUUUGAUGUUUCUAUGAUAAGGGUUUCGGCCCGUGGCGUCGGGGAUCGCCUGCCCAUUCCGAUGGGCUUCUCCCCAUUUAUU DNA 1: GAACAACTCAAATGGAAATGAATAT DNA 2: ATATTCATTTCCATTTGAGTTGTTC | 22.4 | 
SGN000169 sgRNA ; SGN000169 target (ssRNA ; dsDNA) RNA: CACAUCUCGAGCAAGACGUUGUCAUAGUUCCAUUAAAGCCAAAAGUGGCUUUGAUGUUUCUAUGAUAAGGGUUUCGACCCGUGGCGUCGGGGAUCGCCUGCCCAUUGAAAUGGGCUUCUCCCCAUUUAUU DNA 1: CACATCTCGAGCAAGACGTT DNA 2: AACGTCTTGCTCGAGATGTG |  | 22.4
SGN000929 sgRNA ; SGN000929 target (ssRNA ; dsDNA) RNA: AUCUGGAGGGAACUUACAGCAUAUGGUCAUAGUUCCAUGAAAGCCAAAAGUGGCUUUGAUGUUUCUAUGAUAAGGGUUUCGGCCCGUGGCGUCGGGGAUCGCCUGCCCAUUCCGAUGGGCUUCUCCCCAUUUAUU DNA 1: ATCTGGAGGGAACTTACAGCATATG DNA 2: CATATGCTGTAAGTTCCCTCCAGAT | 27.7 | 14.6
SGN001101 sgRNA ; SGN001101 target (ssRNA ; dsDNA) RNA: AUAUUUUCUUUAAUGGUGCCAGGCAGUCAUAGUUCCAUUAAAGCCAAAAGUGGCUUUGAUGUUUCUAUGAUAAGGGUUUCGACCCGUGGCGUCGGGGAUCGCCUGCCCAUUGAAAUGGGCUUCUCCCCAU DNA 1: ATATTTTCTTTAATGGTGCCAGGCA DNA 2: TGCCTGGCACCATTAAAGAAAATAT | 24.3 | 20.4
